Experimental findings from the DeepSol protein solubility set are described below.

The data set in a line: soluble on expression in E. coli; label from the status in PepcDB or PDB records.
Take “MKTLTTERLILRLVSVDDAPFILELYNHPDFYRFVGDKQMRTDYEAVRYIKENMLRMEEKKGVSLLVVEDKQTKQPLGICGLVKRDTLNAYDIGYGFLPSAYGQGFAIEAAKAVIEYAKQAMQLSQLLAITNNDNIRSISLLKKLGFEFEHVEQQYDNGRTLELYTLQL”: the “soluble on expression in E. coli” value is given as “not soluble”.

In the case of “QITGIETGFYDFDKLITGLHEDQLIVLAARPAMGKTALALNIAQNVATKSNKAVAVFSLEMGAESLVERMLSAEGTIINHHIRTGNLTVNEWQRLIYAQGQLAEAPIFIDDTAGVKITDIRARARRLSQETDGLGLIVIDYLQLIQGSRSDNRQQEVSEISRQLKIIAKELKVPVIALSQLSRGVEQRNDKRPIMSDL”, the “soluble on expression in E. coli” value was “not soluble”. To “MGSDKIHHHHHHMTIVSAFLLPGSPLPQLRPDITPWGRIREGLSRAGKALAESKPDCVLVYSTQWFAVLDQLWITRARSTGVHVDENWHEFGEQAFDIHSDCALAQRCVDACNAAGIKTRGVDYDQFPIDTGTITATTLMGFGSASLPVVIAANNLYHSAEQTEQLGAIASAALQDKRAAVLGIGGLSNSAFRENIDLEKDHILSEADDKWNQRVLALMESGDIEAIRAILPQYSTEARPDMGLKHFYWLLGAMNASFKKATVHEYAPLYGSGGAIVQFDVQ” belongs “not soluble”; to “MGWHFQQSVTMPSEWRTLALESDDSYNDFTVIMRRKLQENQVNVVNLEQNIPILRINKQITSDQVASIFKHGREAEKLLMLEVEATFRLANGESYPINAKVNRTFFDNARAALAKSEEREVIWNDMREQVARQLIVKIIALQNQIKRKLEHHHHHH”, “soluble”. For “MTTFPTLDPELAAALTMLPKVDFADLPNARATYDALIGAMLADLSFDGVSLRELSAPGLDGDPEVKIRFVTPDNTAGPVPVLLWIHGGGFAIGTAESSDPFCVEVARELGFAVANVEYRLAPETTFPGPVNDCYAALLYIHAHAEELGIDPSRIAVGGQSAGGGLAAGTVLKARDEGVVPVAFQFLEIPELDDRLETVSMTNFVDTPLWHRPNAILSWKYYLGESYSGPEDPDVSIYAAPSRATDLTGLPPTYLSTMELDPLRDEGIEYALRLLQAGVSVELHSFPGTFHGSALVATAAVSERGAAEALTAIRRGLRSLSPVS” the value was “soluble”; for “MGSDKIHHHHHHMEQTGYGEHIAHTVRNVPYETAIQTEDIAGELAKKFALPYNHAKTITNVKLKRMADKGEIERLQKGIYCHVKQTFFGKVTPTADQVLLKTLMVQNGAKIGYESGASLLNKLGLTTLIPRDIEITTNRYGAKLPEGCHIKLRKPPMPVTDENWKYLQFIDVLMYLPDAHTDAEKPEVLLRQHAKEQQLDYLTLIFTARKYYPQKIVLPLIDLLMEVENETASR”, “not soluble”. For “MTDVIKPDYLEYDDLLDRDEMFTILEEYFMYRGLLGLRIKYGRLFNEIKKFDNDAEEQFGTIEELKQKLRLNSEEGADNFIDYIKVQKQDIVKLTVYDCISMIGLCACVVDVWRNEKLFSRWKYCLRAIKLFINDHMLDKIKSILQNRLVYVEMSKHHHHHH” the value was “soluble”; for “MSDNDELQQIAHLRREYTKGGLRRRDLPADPLTLFERWLSQACEAKLADPTAMVVATVDEHGQPYQRIVLLKHYDEKGMVFYTNLGSRKAHQIENNPRVSLLFPWHTLERQVMVIGKAERLSTLEVMKYFHSRPRDSQIGAWVSKQSSRISARGILESKFLELKQKFQQGEVPLPSFWGGFRVSLEQIEFWQGGEHRLHDRFLYQRENDAWKIDRLAP”, “soluble”. Consider “MGSDKIHHHHHHMIDFSLCEVNKFRAYGGANGNKINILYEGNSYMLKFSPVPSRNKAMSYTNGCISEYLACHIFASLGFKTQETLLGTYTDPRGKEKVVVACGDFTEGGKRLIEFAHLKNTCISSEQNGYGKELSSIMQAIDEQMLLPPDQLRDFFWDMFIADALLGNFDRHNGNWGILVDEQSKTAEIAPVYDCGSCLYPQLAAKDMGDVLNSEDEIDRRVYVFPTSSIEEDGKKISYFEFISSLRNPDCTAALKRVSARIDMEKIRMLIDKTPTLLPVQKEFYTVIISERKAKIIDYSMEKLMKLKGQDLERDEQQNGGLQFTM”, for which the “soluble on expression in E. coli” value is “not soluble”. For “MDDRTEYDVYTDGSYVNGQYAWAYAFVKDGKVHYEDADVGKNPAAATMRNVAGEIAAALYAVKKASQLGVKIRILHDYAGIAFWATGEWKAKNEFTQAYAKLMNQYRGIYSFEKVKAHSGNEFNDYVDMKAKSALGIRDLEHHHHHH” the value was “soluble”. To “MGSDKIHHHHHHMLKIDNLTKTLENKKVISGISFSLKPSQIVGLIGRNGVGKTTLFRLISGEYVPDQGRVTSDESADARSEIFYLDSPDNFTNAFTANQLARIFKVSYPQLDIDWFKNLLKTNNLSLNKKLSGMSKGQRGLILAISAITSKSKYIFLDEPLDGLDLIIRDQVKQMLITAVSNSDTSVMIASHNLEELDFLADRIILLKNGKIEKDYLPGEELKTANVAKLQMVIEGELPKVVSECGHILEKRGHLYVVLFKDYNSKVASRIKRTKAQYIEQLPVNSDDIFRATFEEDYRLRQSAGKRTNK” belongs “not soluble”. For “NDPDADRFAVAARKADGEYQMLTGDQVGSLFGHYLLSQTDAHRQLVGNTIVSSSLLSKIAAAHGARYYQTLTGFKWLTNVAMQEQTEQHQFLFAYEEALGYTIGSTVWDKDGLSALVAFAQLAAELNAQGKTVWDQLEALYRQHGLHVN” the value was “not soluble”; for “GPGSMNYEGHLKGHRGWVTSLACPQQAGSYIKVVSTSRDGTAISWKANPDRHSVDSDYGLPNHRLEGHTGFVSCVSLAHATDYALTASWDRSIRMWDLRNGQCQRKFLKHTKDVLAVAFSPDDRLIVSAGRDNVIRVWNVAGECMHEFLRDGHEDWVSSICFSPSLEHPIVVSGSWDNTIKVWNVNGGKCERTLKGHSNYVSTVTVSPDGSLCASGGKDGAALLWDLSTGEQLFKINVESPINQIAFSPNRFWMCVATERSLSVYDLESKAVIAELTPDGAKPSECISIAWSADGNTLYSGHKDNLIRVWSISDAE”, “soluble”; for “MQSFADAKEFFQYSAGQWQSRRVTHHLPFRRAESGGSNIQVETLEKDDPRIIEICQMHDMDASLSVGGSYVTWAGTMQWDKDDENHEGSTVFALIPDADNPRQGKLLRERGYAEIVPVAGEYHLDHEDGLVLTTEYETMTIYERFWFANPDLRLRTSTVKRFGGFNTTTFCMEERIQTSPVTATAAAETNPLYAISGW”, “not soluble”. For “MAKERALTLEALRVMDAIDRRGSFAAAADELGRVPSALSYTMQKLEEELDVVLFDRSGHRTKFTNVGRMLLERGRVLLEAADKLTTDAEALARGWETHLTIVTEALVPTPAFFPLIDKLAAKANTQLAIITEVLAGAWERLEQGRADIVIAPDMHFRSSSEINSRKLYTLMNVYVAAPDHPIHQEPEPLSEVTRVKYRGIAVADTARERPVLTVQLLDKQPRLTVSTIEDKRQALLAGLGVATMPYPMVEKDIAEGRLRVVSPESTSEIDIIMAWRRDSMGEAKSWCLREIPKLFNGK”, the “soluble on expression in E. coli” value is reported as “soluble”. To “MSLQKRVTDEDIKERLDKIGFRIAVMSGKGGVGKSTVTALLAVHYAKQGKKVGILDADFLGPSIPHLFGLEKGKVAVSDEGLEPVLTQRLGIKVMSIQFLLPKRETPVIWRGPLIAGMIREFLGRVAWGELDYLLIDLPPGTGDAPLTVMQDAKPNGAVIVSTPQELTAAVVEKAITMAEQTKTAVLGIVENMAYFECPNCGERTYLFGEGKASELARKYKIEFITEIPIDSDLLKLSDLGRVEEYEPDWFEFFPYEGGSHHHHHH” belongs “soluble”. For “MKEEAVRVIEEVLKQGRTAMVEYEAKQVLKAYGLPVPEEKLAKTLDEALEYAKEIGYPVVLKLMSPQILHKSDAKVVMLNIKNEEELKKKWEEIHENAKKYRPDAEILGVLVAPMLKPGREVIIGVTEDPQFGHAIMFGLGGIFVEILKDVTFRLVPITEKDARKMIQEIKAYPILAGARGEEPADIDAIVDMLLKVSKLVDDLKDYIKEMDLNPVFVYNKGEGAVIVDSRIILKPKD” the value was “soluble”; for “MGHHHHHHSHMIQPRLLADAIVLFTSSQEEVTLAVTPLNFCLKSSNEESMDLSNAVHSEMFVGSDEFDFFQIGMDTEITFCFKELKGILTFSEATHAPISIYFDFPGKPLALSIDDMLVEANFILATLADEQSRASSPQSLCLSQKRKRSDLIEKKAGKNVTGQALECISKKAAPRRLYPKETLTNISALENCGSPAMKRVDGDVSEVSESSVSNTEEVPGSLCLRKFSCMFFGAVSSDQQEHFNHPFDSLARASGSEEDMNNVCCRKEFNGSDAEYFCII”, “not soluble”; for “MGSDKIHHHHHHMRDMVPRLTKSYEASSQPIASIRSSVLSVVVGALEATGVSTDHLLAQHGLSRLTLDDPYNPVSLKNYVAFFEDAARMSSQPMLGIRLGNAIKAEDLGPVGVLYTMMQTLRSAIVRFSHFFPALQGSTKLGLSVRGDATWLEYQIEDQTIWPRRQDTEFTLALICALTRSRLGRGWAPEEIHFEHSAPTNGRDMAHFFGAVIRFDQPINRMLIRTEDLDLPFASANPAAIAIIEQHLNDLIGDGVVPAFEDAVLQAIMRCMKRGEVTLELVASRLGIGPRTLQRRLAATGRTFREIVQQQRHGTATVLLKDERIALGVVAGNLGYADTATMSRAFKTWTGQSPRAYSKKNRREAR”, “not soluble”. For “MSMAMSQSNRELVVDFLSYKLSQKGYSWSQFSDVEENRTEAPEGTESEMETPSAINGNPSWHLADSPAVNGATGHSSSLDAREVIPMAAVKQALREAGDEFELRYRRAFSDLTSQLHITPGTAYQSFEQVVNELFRDGVNWGRIVAFFSFGGALCVESVDKEMQVLVSRIAAWMATYLNDHLEPWIQENGGWDTFVELYGNNAAAESRKGQERLEHHHHHH” the value was “soluble”; for “MGSDKIHHHHHHMTWGFKNRLNTILPDGRAVMLAIDHGYFLGPIHGLEQPLETVKNLLPYTDSLFLTRGVLSSCIPENCSTPMVIRVSGGATVVGKDLANETIVTPVKEAVKQNAIGVGVSVFVGSDYETQTVTNLANVVSEAHDYCLPVLGITAVAKELQKREARFLALASRVCVEMGADIIKTYYCEGFEKITSTCPAPVVIAGGPKLDSIEDALNITYNALQEGAIGVDMGRNIWQSEHPAAMIQAIHGIVKNGLNVKEALQLYEDVKN”, “not soluble”. “MGSDKIHHHHHHMKEIVEQNIFNEDLSQLLYSFIDSKETFSFAESSILHYVVFGGENLDVATRLGAGIEILILSSDIMDDLEDEDNHHALWMKINRSESLNAALSLYTVGLTSIYSLNNNPLIFKYVLKYVNEAMQGQHDDITNKSKTEDESLEVIRLKCGSLIALANVAGVLLATGEYNETVERYSYYKGIIAQISGDYYVLLSGNRSDIEKNKHTLIYLYLKRLFNDASEDLLYLISHKDLYYKSLLDKEKFQEKLIKAGVTQYISVLLEIYKQKCISAIEQLNLDKEKKELIKECLLSYTKGDTRCKT”: the “soluble on expression in E. coli” value was “not soluble”. To “MAVELNQLRDQIDEVDKQMVELLARRLALVEQVGQVKSRYGLPIYAPDREAAMLASRRAEAESKGVPPQLIEDILRRTMRESYASEKDSGFKCLNPELRSVVIVGGNGQLGRLFGRMFKLSGYQVKVLGSQDWDKADELLSDAGLVVVTVPIHLTLGVIEKLRQLPDDCILCDLTSIKAKPLAAMLQVHKGPVVGLHPMFGPDVPSLAKQVIVYCDGRGNEHYQWLLQQFAIWGASLCQIDADEHDRGMTLIQALRHFTSFAYGLHLTKENPNLAQLLKLSSPIYRLELAMVGRLFGQDPHLYGDIILSSPENIEMIQRFHRCLSDAVELVSAGDKASFVAQFERVSQWFGDYSQQFMHESQNLLKQANDAIHRG” belongs “not soluble”.
